Experimental data published in paper PMC3507626, “The Crystal Structure of the Intact E. coli RelBE Toxin-Antitoxin Complex Provides the Structural Basis for Conditional Cooperativity” (Structure(London, England:1993), 2012).

Key:
[1] = biological target: the molecule itself; test: not stated; isolated RelB and isolated RelE in solution; data not shown
[2] = biological target: T1, Escherichia coli RelE R81A (untagged, full-length toxin) (Escherichia coli, UniProt P0C077 1-95, R81A); test: crystal structure; RelB2E2 reconstituted from purified RelB and RelE R81A; crystals at 4°C, 1.6-2.0 M ammonium sulfate, 0.1 M Na acetate pH 4.6; space group P6(1)22; 2.8 Å; details: both partners purified
T1 construct: RelE toxin of the relBE locus, Escherichia coli, 95 residues, R81A active-site mutant; also called R81A active-site mutant
T1 sequence (looked up): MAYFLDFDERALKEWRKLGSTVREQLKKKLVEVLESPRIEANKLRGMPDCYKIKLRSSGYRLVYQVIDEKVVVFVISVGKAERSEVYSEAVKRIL

B1: Escherichia coli RelB (untagged, intact antitoxin) (natural protein, UniProt P0C079 1-79, looked up)
chain: MGSINLRIDDELKARSYAALEKMGVTPSEALRLMLEYIADNERLPFKQTLLSDEDAELVEIVKERLRNPKPVRVTLDEL
notes: RelB antitoxin of the relBE locus, Escherichia coli, 79 residues (residues 2-79 of 79 seen in the structure); Untagged; Details of purification are in the Supplemental Experimental Procedures; source: E. coli, plasmid pSC2524HE encoding His-tagged RelE R81A and untagged RelB; purified by denaturation, ion exchange, gel filtration
In the case of B1, the “stoichiometry N” value [1] is reported as 4 and the binding result [2] is reported as “binds”.
